Data on 5 molecules can be found in patent publication US20180171027A1 (Celldex Therapeutics, Inc., priority 2015, published 2018).

For assay [1], the target named is T1, ErbB3 (Homo sapiens, UniProt P21860).
For assay [2], the target named is T1, ErbB3. Description: cell-based or functional assay.
Assay [3] has as its target T1, ErbB3. Description: ErbB phosphorylation (Theranostics Health platform): ErbB3 activation (pErbB3). Format: cell-based. Details: endogenous in cells; host or cells: SCCHN cell lines (Cal27, FaDu, UNC7, SCC61 and others). The conditions noted are these: Cal27 cells, similar results in FaDu. As for the experimental part:
ErbB phosphorylation was measured using the Theranostics Health platform.

Assay [4] addresses T1, ErbB3. The assay can be described thus: ErbB3 phosphorylation ELISA, titration of purified NRG proteins on T47D cells. Details: endogenous in cells. It counts as cell-based. As for the experimental part: Genes encoding the full extracellular domains of each NRG gene and isoform (NRG1α, NRG1β, NRG2α, and NRG2β) were modified to encode a signal peptide at their 5′ end, in order to induce secretion, and a His-tag at their 3′ end. Constructs were transfected into HEK293 cells and conditioned media was treated with NaCl to a final concentration of 0.5 M. NRG-containing media was purified by NiNTA chromatography and eluted with stepwise increases in imidazole in a phosphate buffer containing 0.5 M NaCl. NRG-containing fractions were pooled and further purified by size-exclusion chromatography with a mobile phase consisting of a phosphate-based buffer with 0.5 M NaCl. Purified NRG proteins were titrated on T47D breast cancer cells (which naturally express all ErbB receptors) for 10 minutes at 37° C. ErbB3 phosphorylation was measured by ELISA.
(In general: In an ELISA, binding on a coated surface is turned into a signal by an enzyme label.)

Assay [5] concerns the target T1, ErbB3. Description: cell-based or functional assay. The source holds these as a separate data set.

“NRG1β full extracellular domain, His-tagged (from UniProt Q02297 20-242) (ligand)” gave an EC50 (read off the curve), ErbB3 phosphorylation in T47D cells (ELISA) [panel B] in the assay with ErbB3 [1] of 1 nM. The molecule also gave a potency of ErbB3 phosphorylation relative to the other NRG isoforms, T47D cells with ErbB3 [2] of 10 fold.

“pertuzumab: anti-ErbB2 monoclonal antibody [reference compound]”: the “inhibiting or blocking EGF-stimulated activation of ErbB3” value with ErbB3 [3] (presence of EGF) is listed as “neither pertuzumab nor 2C2-YTE were capable of inhibiting or blocking”. For the same molecule, the “activation of ErbB3” value with ErbB3 [3] (presence of NRG) is listed as “blocked activation”.

B1: NRG1β: purified His-tagged full extracellular domain of neuregulin isoform, recombinantly expressed by HEK293 cells (protein, UniProt Q02297 20-242, looked up)
extracellular domain: SGKKPESAAGSQSPALPPRLKEMKSQESAAGSKLVLRCETSSEYSSLRFKWFKNGNELNRKNKPQNIKIQKKPGKSELRINKASLADSGEYMCKVISKLGNDSASANITIVESNEIITGMPASTEGAYVSSESPIRISVSTEGANTSSSTSTSTTGTSHLVKCAEKEKTFCVNGGECFMVKDLSNPSRYLCKCQPGFTGARCTENVPMKVQNQEKAEELYQKR
modifications: extracellular domain His tag
notes: purified His-tagged full extracellular domain of neuregulin isoform, recombinantly expressed by HEK293 cells
Take B1: the “potency of ErbB3 activation relative to the other NRG isoforms” value in the assay with ErbB3 [4] is “approximately 10 fold”.

B2: NRG2β full extracellular domain, His-tagged (ligand, UniProt O14511 112-405, looked up, not shown: small tags and cut ends)
chain: CYSPSLKSVQDQAYKAPVVVEGKVQGLVPAGGSSSNSTREPPASGRVALVKVLDKWPLRSGGLQREQVISVGSCVPLERNQRYIFFLEPTEQPLVFKTAFAPLDTNGKNLKKEVGKILCTDCATRPKLKKMKSQTGQVGEKQSLKCEAAAGNPQPSYRWFKDGKELNRSRDIRIKYGNGRKNSRLQFNKVKVEDAGEYVCEAENILGKDTVRGRLYVNSVSTTLSSWSGHARKCNETAKSYCVNGGVCYYIEGINQLSCKCPNGFFGQRCLEKLPLRLYMPDPKQKAEELYQKR
B2 showed an EC50 (read off the curve), ErbB3 phosphorylation in T47D cells (ELISA) [panel B] with ErbB3 [1] of 7 nM.

B3: 2C2-YTE anti-HER3 antibody (antibody, human IgG1, V domains shown)
VH: EVQLLESGGGLVQPGGSLRLSCAASGFTFSYYYMQWVRQAPGKGLEWVSYIGSSGGVTNYADSVKGRFTISRDNSKNTLYLQMNSLRAEDTAVYYCARVGLGDAFDIWGQGTMVTVSS
VL: QSVLTQPPSASGTPGQRVTISCSGSLSNIGLNYVSWYQQLPGTAPKLLISRNNQRPSGVPDRFSGSKSGTSASLAISGLRSEDEADYYCAAWDDSPPGEAFGGGTKLTVL
As for B3, in the assay with ErbB3 [5], the pY-H3 (VeraTag phosphorylated ErbB3), 4213 non-cancerous skin cell line, 2C2-YTE treatment was 0.6; the pY-H3 (VeraTag phosphorylated ErbB3), 4213 non-cancerous skin cell line, control IgG1 treatment (baseline for 2C2-YTE) turned out to be 0.5; the pY-H3 (VeraTag phosphorylated ErbB3), CAL27 cells, 2C2-YTE treatment is 0.6; the pY-H3 (VeraTag phosphorylated ErbB3), CAL27 cells, control IgG1 treatment (baseline for 2C2-YTE) is 4.6. Further, in the assay with ErbB3 [5], the pY-H3 (VeraTag phosphorylated ErbB3), SCC35 cells, 2C2-YTE treatment turned out to be 0.4; the pY-H3 (VeraTag phosphorylated ErbB3), SCC35 cells, control IgG1 treatment (baseline for 2C2-YTE) is 1.1; the pY-H3 (VeraTag phosphorylated ErbB3), SCC61 cells, 2C2-YTE treatment stood at 0.6; the pY-H3 (VeraTag phosphorylated ErbB3), SCC61 cells, control IgG1 treatment (baseline for 2C2-YTE) turned out to be 6.1. In the assay with ErbB3 [5], the pY-H3 (VeraTag phosphorylated ErbB3), UNC7 cells, 2C2-YTE treatment was found to be 0.4; the pY-H3 (VeraTag phosphorylated ErbB3), UNC7 cells, control IgG1 treatment (baseline for 2C2-YTE) came out at 3.5; the pY-H3 (VeraTag phosphorylated ErbB3), UNC10 cells, control IgG1/2C2-YTE (one value given) turned out to be 0; the pY-H3 pharmacodynamic (PD) ratio, 4213 non-cancerous skin cell line amounted to 1. In the assay with ErbB3 [5], the pY-H3 pharmacodynamic (PD) ratio, CAL27 cells was 7.5; the pY-H3 pharmacodynamic (PD) ratio, SCC35 cells was 2.8; the pY-H3 pharmacodynamic (PD) ratio, SCC61 cells was 10.6; the pY-H3 pharmacodynamic (PD) ratio, UNC7 cells turned out to be 8.4. In the assay with ErbB3 [5], the pY-H3 pharmacodynamic (PD) ratio, UNC10 cells is 0.
